Measured values: patent US20260274955A1 (JANUX THERAPEUTICS, published 2026)

B1: Phage-369 (peptide)
peptide: YCVGHAPEFMAKCL
B2: Phage-386 (peptide)
peptide: YCDGHLDEYMEKCL
B3: Phage-347 (peptide)
peptide: YCAGHAPEYMFKCM
B4: Phage-387 (peptide)
peptide: YCAGHLPEYMLKCL
B5: Phage-442 (peptide)
peptide: YCAGHSPLYMLKCL
B6: Phage-444 (peptide)
peptide: YCDGHLPVYLEKCL
B7: Phage-379 (peptide)
peptide: YCAGHVPEYMAKCL
B8: Phage-366 (peptide)
peptide: YCDGHKAEYMEKCL
B9: Phage-27 (peptide)
peptide: YCEGHEGIYFWKCL
B10: Phage-368 (peptide)
peptide: YCDGHTREYIDKCL
B11: Phage-383 (peptide)
peptide: YCDGHSSEYIAKCL
B12: Phage-374 (peptide)
peptide: YCDGHSPEYIAKCL
B13: Phage-350 (peptide)
peptide: YCDGHSPAYMAKCL
B14: Phage-69 (peptide)
peptide: YCDGHLPEYMAKCL
B15: Phage-53 (peptide)
peptide: YCAGHLPEYMDKCL
B16: Phage-31 (peptide)
peptide: YCEGHAPEYIWKCL
B17: Phage-40 (peptide)
peptide: YCEGHLPEYRNKCL
B18: Phage-48 (peptide)
peptide: YCAGHAPEYMEKCL
B19: Phage-42 (peptide)
peptide: YCEGHLPEYIQKCL
B20: Phage-45 (peptide)
peptide: YCDGHSPIYMWKCL
B21: Phage-34 (peptide)
peptide: YCEGHLPEYREKCL
B22: Phage-49 (peptide)
peptide: YCDGHSPEYMWKCL
B23: Phage-51 (peptide)
peptide: YCEGHLPQYMWKCL
B24: Phage-54 (peptide)
peptide: YCDGHSAEHMAKCL
B25: Phage-29 (peptide)
peptide: YCEGHAPEYIAKCL
B26: Phage-35 (peptide)
peptide: YCEGHLPEYLAKCL
B27: Phage-44 (peptide)
peptide: YCEGHAPEYIGKCL
B28: Phage-50 (peptide)
peptide: YCDGHLPEYMEKCL
B29: Phage-57 (peptide)
peptide: YCEGHLPEYMAKCL
B30: Phage-33 (peptide)
peptide: YCEGHLPEYLGKCL
B31: Phage-55 (peptide)
peptide: YCAGHLPQYMAKCL
B32: Phage-30 (peptide)
peptide: YCEGHAPEYIRKCL
B33: Phage-46 (peptide)
peptide: YCEGHAPEYMAKCL
B34: Phage-43 (peptide)
peptide: YCEGHLPEYIWKCL
B35: Phage-52 (peptide)
peptide: YCDGHLPEYMNKCL
B36: Phage-28 (peptide)
peptide: YCEGHLPEYIEKCL
B37: Phage-47 (peptide)
peptide: YCDGHLPQYMEKCL
B38: Phage-381 (peptide)
peptide: YCEGHLDEYMWKCL
B39: Phage-25 (peptide)
peptide: YCEGHSPEYILKCL
B40: Phage-93 (peptide)
peptide: YCDGHSPEYILKCL
B41: Phage-26 (peptide)
peptide: YCEGHRPEYILKCL
B42: Phage-380 (peptide)
peptide: YCDGHSAEYITKCL
B43: Phage-449 (peptide)
peptide: YCEGHSPWYMNKCL
B44: Phage-384 (peptide)
peptide: YCEGHSPQYVQKCL
B45: Phage-372 (peptide)
peptide: YCDGHLGVYMAKCL
B46: Phage-382 (peptide)
peptide: YCDGLASEYMSKCL
B47: Phage-364 (peptide)
peptide: YCQGHSAEYMMKCL
B48: Phage-445 (peptide)
peptide: YCAGHLQEYMQKCL
B49: Phage-448 (peptide)
peptide: YCDGHAWEYMTKCL
B50: Phage-373 (peptide)
peptide: YCDGHTSEYITKCL
B51: Phage-370 (peptide)
peptide: YCAGHAEQYMAKCL
B52: Phage-367 (peptide)
peptide: YCAGHLPMYMAKCL

Experiments:
[1] = molecular target: T1, anti-CD28 Fab (SEQ ID NOs: 202, 203); experiment: phage binding ELISA; biotinylated Fab on neutravidin plate;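 note: clonal phage supernatants added to Fab wells pretreated with CD28 antigen or with blocking buffer only, bound phage read out via HRP-linked anti-M13 antibody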
T1 construct: biotinylated and captured on neutravidin coated plates in the phage ELISA
Description: (§1) Clonal phage were harvested as crude supernatants and screened via standard ELISAs. […] Prior to the addition of clonal phage, wells were incubated with blocking buffer and CD28 antigen or blocking buffer alone. Without washing or aspirating, clonal phage supernatants were then added to the wells and incubated for a short time. Wells were then washed followed by detection of bound phage using a horse radish conjugated anti-M13 antibody.

[2] = molecular target: T1, anti-CD28 Fab (SEQ ID NOs: 202, 203); experiment: phage binding ELISA; Fab wells pre-incubated with CD28 antigen (competitor);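 note: clonal phage supernatants added to wells preincubated with CD28 antigen in blocking buffer versus blocking buffer alone, washed, bound phage read by HRP-conjugated anti-M13 antibody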
Description: as §1

[3] = molecular target: Anti-CD28 Fab (SEQ ID NOs: 202, 203); experiment: phage binding ELISA on captured Fab;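 note: clonal phage supernatants added briefly to wells pre-incubated with CD28 antigen or with blocking buffer only, then washed, bound phage read by ELISA using HRP-coupled anti-M13 antibody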
Description: as §1

[4] = molecular target: Anti-CD28 Fab (SEQ ID NOs: 202, 203); experiment: phage binding ELISA on captured Fab; competitor CD28 antigen;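 for Anti-CD28 Fab signal in the presence of CD28: wells pretreated with CD28 antigen in blocking buffer or buffer only, then clonal phage supernatants added briefly without washing, bound phage detected via horseradish-conjugated anti-M13 antibody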
Description: as §1

T1 sequence (VH, as listed by the source, chain 1 of 2): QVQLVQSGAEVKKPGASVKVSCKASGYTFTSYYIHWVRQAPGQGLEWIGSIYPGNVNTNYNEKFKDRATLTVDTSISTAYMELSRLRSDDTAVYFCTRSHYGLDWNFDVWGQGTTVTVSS
T1 sequence (VL, as listed by the source, chain 2 of 2): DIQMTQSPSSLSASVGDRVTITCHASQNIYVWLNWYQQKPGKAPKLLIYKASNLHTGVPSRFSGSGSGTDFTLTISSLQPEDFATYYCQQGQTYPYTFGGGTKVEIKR
Chain of Anti-CD28 Fab (SEQ ID NOs: 202, 203) (VH, as listed by the source, chain 1 of 2): as the sequence (VH, as listed by the source, chain 1 of 2) above
Chain of Anti-CD28 Fab (SEQ ID NOs: 202, 203) (VL, as listed by the source, chain 2 of 2): as the sequence (VL, as listed by the source, chain 2 of 2) above

Binder	Anti-CD28 Fab (SEQ ID NOs: 202, 203) signal [1]	Anti-CD28 Fab signal in the presence of CD28 [2]	Anti-CD28 Fab signal [3]	Anti-CD28 Fab signal in the presence of CD28 [4]
B1	1.8	0.1		
B2	1.76	0.08		
B3	1.83	0.06		
B4	1.76	0.09		
B5	1.7	0.1		
B6	1.69	0.06		
B7	1.78	0.07		
B8	1.81	0.09		
B9			2.07	0.06
B10	1.8	0.08		
B11	1.77	0.07		
B12	1.79	0.23		
B13	1.83	0.1		
B14			2.37	0.13
B15			2.42	0.12
B16			1.63	0.07
B17			2.38	0.17
B18			2.45	0.09
B19			1.9	0.08
B20			2.47	0.09
B21			1.96	0.07
B22			2.44	0.09
B23			2.44	0.17
B24			2.41	0.08
B25			2.15	0.09
B26			2.34	0.1

Binder	Anti-CD28 Fab (SEQ ID NOs: 202, 203) signal [1]	Anti-CD28 Fab signal in the presence of CD28 [2]	Anti-CD28 Fab signal [3]	Anti-CD28 Fab signal in the presence of CD28 [4]
B27			2.1	0.07
B28			2.44	0.1
B29			2.41	0.14
B30			1.23	0.08
B31			2.41	0.17
B32			1.63	0.08
B33			2.47	0.08
B34			2.32	0.09
B35			2.43	0.13
B36			2.06	0.08
B37			2.47	0.11
B38	1.77	0.06		
B39			1.75	0.06
B40			2.31	0.09
B41			1.27	0.06
B42	1.77	0.06		
B43	1.68	0.06		
B44	1.77	0.06		
B45	1.79	0.07		
B46	1.77	0.05		
B47	1.81	0.07		
B48	1.69	0.07		
B49	1.69	0.35		
B50	1.79	0.07		
B51	1.8	0.08		
B52	1.8	0.08		
